Laboratory results: patent US20230374534
Changes are numbered by the printed parent chain.

B1: Trx-h2, endogenous protein in Arabidopsis plants (protein)
chain: GGALSTVFGSGEDATAAGTESEPSRVLKFSSSARWQLHFNEIKESNKLLVVDFSASWCGPCRMIEPAIHAMADKFNDVDFVKLDVDELPDVAKEFNVTAMPTFVLVKRGKEIERIIGAKKDELEKKVSKLRA
B2: Thioredoxin h2 (Trx-h2), purified recombinant protein (protein)
chain: MGGALSTVFGSGEDATAAGTESEPSRVLKFSSSARWQLHFNEIKESNKLLVVDFSASWCGPCRMIEPAIHAMADKFNDVDFVKLDVDELPDVAKEFNVTAMPTFVLVKRGKEIERIIGAKKDELEKKVSKLRA
B3: Trx-h2(C/S), redox-insensitive point mutant of Trx-h2, recombinant (protein)
chain: B2 chain with C59S, C62S

Columns and labels:
[1] = biological target: CBF1-Myc (from CBF1-Myc^OE Arabidopsis plants)
[2] = biological target: His-CBF1 (histidine-tagged C-repeat-binding transcription factor 1), recombinant
Chain of His-CBF1 (histidine-tagged C-repeat-binding transcription factor 1), recombinant (chain, as listed by the source): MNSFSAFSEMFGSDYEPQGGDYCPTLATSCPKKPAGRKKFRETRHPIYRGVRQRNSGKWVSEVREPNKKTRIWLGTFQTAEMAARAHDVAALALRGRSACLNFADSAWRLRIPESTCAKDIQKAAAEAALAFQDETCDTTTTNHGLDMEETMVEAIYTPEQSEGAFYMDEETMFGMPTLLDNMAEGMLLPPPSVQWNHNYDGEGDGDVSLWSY

Chain of CBF1-Myc (from CBF1-Myc^OE Arabidopsis plants) (chain, as listed by the source): as above

| Protein | cold-induced structural switching of CBF1-Myc oligomers in planta (non-reducing gel, CBF1-Myc^OE/Col-0 against CBF1-Myc^OE/trx-h2) [1] | EMSA: mobility shift of the biotin-labeled COR15a promoter probe with His-CBF1 [2] | dissociation of CBF1 oligomers into monomers (Trx system with NADPH, Trx reductase and 5 µM Trx-h2; non-reducing SDS-PAGE, western blot) [2] |
| --- | --- | --- | --- |
| B1 | gradually dissociated into small oligomers and monomers by cold (lanes 2-4). By contrast, no structural change was detected in CBF1 extracted from CBF1-Myc^OE/trx-h2 plants | – | – |
| B2 | – | Treatment with DTT or Trx-h2 ... induced a distinct mobility shift in the probe interacting with His-CBF1 | reduced and dissociated CBF1 oligomers into monomers |
| B3 | – | but not H2O2 or Trx-h2(C/S), induced a distinct mobility shift | – |
